Sequences and labels used below:
T1: Estrogen Receptor α (ER) (UniProt P03372 1-595)
T1 construct: Endogenous intracellular receptor in breast cancer cell lysates, and ER where no construct is named; also called ERα; endogenous ER
T1 sequence (looked up): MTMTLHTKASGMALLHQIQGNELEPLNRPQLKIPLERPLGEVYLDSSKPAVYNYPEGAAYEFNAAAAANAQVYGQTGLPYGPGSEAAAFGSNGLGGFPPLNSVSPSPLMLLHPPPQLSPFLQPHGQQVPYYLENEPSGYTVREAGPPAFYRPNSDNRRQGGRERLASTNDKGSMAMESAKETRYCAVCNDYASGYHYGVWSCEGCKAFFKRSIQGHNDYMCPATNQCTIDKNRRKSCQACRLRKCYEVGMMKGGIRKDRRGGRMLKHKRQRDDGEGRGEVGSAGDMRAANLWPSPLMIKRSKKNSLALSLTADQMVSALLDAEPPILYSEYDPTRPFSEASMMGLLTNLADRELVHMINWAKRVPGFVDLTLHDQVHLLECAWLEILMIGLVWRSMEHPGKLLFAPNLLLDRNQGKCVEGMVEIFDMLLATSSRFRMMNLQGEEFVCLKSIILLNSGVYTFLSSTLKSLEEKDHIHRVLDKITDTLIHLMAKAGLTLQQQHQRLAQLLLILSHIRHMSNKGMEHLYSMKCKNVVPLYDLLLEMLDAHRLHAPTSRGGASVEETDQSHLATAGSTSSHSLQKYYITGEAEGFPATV

T2: GAD-ERα (UniProt P03372 1-536)
T2 construct: range 1-536; Yeast two-hybrid prey; also called GAD-ERα amino acids 1-536
T2 sequence (looked up): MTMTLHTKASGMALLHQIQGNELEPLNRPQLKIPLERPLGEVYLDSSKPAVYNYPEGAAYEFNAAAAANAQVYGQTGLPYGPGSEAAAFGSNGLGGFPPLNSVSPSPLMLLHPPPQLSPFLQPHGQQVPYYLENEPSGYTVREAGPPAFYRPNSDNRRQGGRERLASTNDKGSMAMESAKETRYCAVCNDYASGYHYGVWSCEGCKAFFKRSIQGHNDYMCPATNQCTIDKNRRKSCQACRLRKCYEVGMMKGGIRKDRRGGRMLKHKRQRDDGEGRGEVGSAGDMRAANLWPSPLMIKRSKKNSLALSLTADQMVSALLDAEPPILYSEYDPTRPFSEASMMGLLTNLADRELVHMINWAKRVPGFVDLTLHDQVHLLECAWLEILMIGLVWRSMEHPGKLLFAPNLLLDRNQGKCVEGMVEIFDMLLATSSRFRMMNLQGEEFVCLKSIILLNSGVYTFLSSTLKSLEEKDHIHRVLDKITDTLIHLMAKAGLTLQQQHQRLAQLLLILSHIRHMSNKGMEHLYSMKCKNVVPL

T3: bifunctional ATP sulfurylase/adenosine 5'-phosphosulfate (APS) kinase (UniProt O43252 1-624, limits assumed)
T3 construct: Two-hybrid isolate
T3 sequence (looked up): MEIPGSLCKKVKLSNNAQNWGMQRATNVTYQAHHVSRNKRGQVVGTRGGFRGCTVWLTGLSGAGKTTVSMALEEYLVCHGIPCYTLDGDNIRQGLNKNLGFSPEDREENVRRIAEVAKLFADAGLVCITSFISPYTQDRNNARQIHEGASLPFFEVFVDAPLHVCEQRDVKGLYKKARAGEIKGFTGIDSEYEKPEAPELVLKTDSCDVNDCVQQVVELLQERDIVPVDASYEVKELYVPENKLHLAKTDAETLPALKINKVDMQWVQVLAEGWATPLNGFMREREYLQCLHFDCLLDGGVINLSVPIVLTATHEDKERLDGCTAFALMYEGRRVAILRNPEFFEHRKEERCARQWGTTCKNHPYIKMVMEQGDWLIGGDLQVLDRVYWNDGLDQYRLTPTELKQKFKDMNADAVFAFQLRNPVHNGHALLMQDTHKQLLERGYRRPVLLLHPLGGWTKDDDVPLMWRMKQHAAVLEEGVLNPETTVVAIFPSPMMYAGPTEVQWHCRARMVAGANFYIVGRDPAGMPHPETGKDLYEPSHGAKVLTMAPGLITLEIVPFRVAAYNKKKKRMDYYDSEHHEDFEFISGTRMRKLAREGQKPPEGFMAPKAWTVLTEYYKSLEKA

B1: T7-MTA1sdel (other, not shown: small tags and cut ends)
chain: MAANMYRVGDYVYFENSSSNPYLIRRIEELNKTANGNVEAKVVCFYRRRDISSTLIALADKHATLSVCYKAGPGADNGEEGEIEEEMENPEMVDLPEKLKHQLRHRELFLSRQLESLPATHIRGKCSVTLLNETESLKSYLEREDFFFYSLVYDPQQKTLLADKGEIRVGNRYQADITDLLKEGEEDGRDQSRLETQVWEAHNPLTDKQIDQFLVVARSVGTFARALDCSSSVRQPSLHMSAAAASRDITLFHAMDTLHKNIYDISKAISALVPQGGPVLCRDEMEEWSASEANLFEEALEKYGKDFTDIQQDFLPWKSLTSIIEYYYMWKTTDRYVQQKRLKAAEAESKLKQVYIPNYNKPNPNQISVNNVKAGVVNGTGAPGQSPGAGRACESCYMSSDILEEIWWLENANPVRWREARTKPQ
notes: Expressed in MCF-7 cells for immunoprecipitation with T7-mAb; also called T7-tagged MTA1s-del
B2: MTA1s-del (other)
chain: B1 chain
B3: T7-MTA1sstop (other, not shown: small tags and cut ends)
chain: MAANMYRVGDYVYFENSSSNPYLIRRIEELNKTANGNVEAKVVCFYRRRDISSTLIALADKHATLSVCYKAGPGADNGEEGEIEEEMENPEMVDLPEKLKHQLRHRELFLSRQLESLPATHIRGKCSVTLLNETESLKSYLEREDFFFYSLVYDPQQKTLLADKGEIRVGNRYQADITDLLKEGEEDGRDQSRLETQVWEAHNPLTDKQIDQFLVVARSVGTFARALDCSSSVRQPSLHMSAAAASRDITLFHAMDTLHKNIYDISKAISALVPQGGPVLCRDEMEEWSASEANLFEEALEKYGKDFTDIQQDFLPWKSLTSIIEYYYMWKTTDRYVQQKRLKAAEAESKLKQVYIPNYNKPNPNQISVNNVKAGVVNGTGAPGQSPGAGRACESCY
notes: Expressed in MCF-7 cells for immunoprecipitation with T7-mAb; also called T7-tagged MTA1s-stop
B4: MTA1s-stop (other)
chain: B3 chain
B5: LMO4 (other, UniProt P61968 1-165, looked up)
chain: MVNPGSSSQPPPVTAGSLSWKRCAGCGGKIADRFLLYAMDSYWHSRCLKCSCCQAQLGDIGTSCYTKSGMILCRNDYIRLFGNSGACSACGQSIPASELVMRAQGNVYHLKCFTCSTCRNRLVPGDRFHYINGSLFCEHDRPTALINGHLNSLQSNPLLPDQKVC
notes: Two-hybrid isolate; also called LIM 04; LIM04
B6: Casein Kinase 1, γ2 (enzyme)
chain: not shown
notes: Two-hybrid isolate; also called clone S55-1
B7: MTA1s (other)
chain: MAANMYRVGDYVYFENSSSNPYLIRRIEELNKTANGNVEAKVVCFYRRRDISSTLIALADKHATLSVCYKAGPGADNGEEGEIEEEMENPEMVDLPEKLKHQLRHRELFLSRQLESLPATHIRGKCSVTLLNETESLKSYLEREDFFFYSLVYDPQQKTLLADKGEIRVGNRYQADITDLLKEGEEDGRDQSRLETQVWEAHNPLTDKQIDQFLVVARSVGTFARALDCSSSVRQPSLHMSAAAASRDITLFHAMDTLHKNIYDISKAISALVPQGGPVLCRDEMEEWSASEANLFEEALEKYGKDFTDIQQDFLPWKSLTSIIEYYYMWKTTDRYVQQKRLKAAEAESKLKQVYIPNYNKPNPNQISVNNVKAGVVNGTGAPGQSPGAGRACESCYMSSLRILLDILEEIWWLENANPVRWREARTKPQ
notes: also called MTA1s (short); S2 clone

One test deals with T1, Estrogen Receptor α (ER). As to the kind of experiment: immunoprecipitation with T7-mAb, immunoblot for ERα (FIG. 4D). On the technique in general: Immunoblotting shows a protein as a band on a membrane.
For the next test, the target named is T2, GAD-ERα. As to the kind of experiment: yeast two-hybrid (FIG. 4B).
The test “MTA1s” concerns the target B7. As to the kind of experiment: FIG. 14 legend.
For test [1], the target named is T4, Homologs to eukaryotic translation initiation factor 3, subunit 6 (48 kD) (UniProt P60228 1-445, limits assumed).
T4 construct: Two-hybrid isolate; also called Cone S 64-1
T4 sequence (P60228 whole entry): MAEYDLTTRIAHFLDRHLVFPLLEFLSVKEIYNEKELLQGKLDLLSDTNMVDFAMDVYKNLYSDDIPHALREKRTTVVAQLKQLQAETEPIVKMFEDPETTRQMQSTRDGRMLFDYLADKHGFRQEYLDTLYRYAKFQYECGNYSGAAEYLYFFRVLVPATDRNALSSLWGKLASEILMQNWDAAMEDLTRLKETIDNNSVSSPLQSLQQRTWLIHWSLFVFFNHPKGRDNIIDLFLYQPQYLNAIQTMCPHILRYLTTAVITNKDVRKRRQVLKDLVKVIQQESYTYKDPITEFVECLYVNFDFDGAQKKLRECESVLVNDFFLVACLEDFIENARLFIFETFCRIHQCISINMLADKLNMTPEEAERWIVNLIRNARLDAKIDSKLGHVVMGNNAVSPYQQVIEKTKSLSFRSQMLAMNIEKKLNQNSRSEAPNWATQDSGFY
In words: FIG. 14 legend.

In test [2] the target is T3, bifunctional ATP sulfurylase/adenosine …. In words: yeast two-hybrid screen for MTA1s-interacting proteins.

Take B1: in the test with Estrogen Receptor α (ER), the binding result is “no binding”.
With B2, the binding result in the test with GAD-ERα is “no binding”.
As to B3, the binding result with Estrogen Receptor α (ER) is “no binding”.
Consider B4, for which, in the test with GAD-ERα, the binding result is recorded as “no binding”.
For the molecule B5, the binding result with MTA1s is listed as “binds”.
On to B6, for which the binding result with MTA1s was “binds”.
Regarding B7, the binding result in test [1] and in test [2] was “binds” in each case.

(Values after patent US20060204957A1 (published 2006).)
